Measured values taken from patent publication US20220089722A1 (NANTONG YICHEN BIOPHARMA, published 2022).

How the values were obtained:
[1] = target: T1, CD3 on T cells (Jurkat T cells; PBMC-T cells); test: flow cytometry on activated T cells from PBMCs (PBMC-T)
T1 construct: whole, on cells; the target is inferred from the anti-CD3 arm of the constructs
Experimental: Peripheral blood of healthy volunteers was collected, and Ficoll-Hypaque(GE Healthcare) was used to separate peripheral blood monouclear cells (PBMCs) via gradient centrifugation. The purified PBMCs were resuspended in RPMI 1640/10% FBS complete medium. PBMCs were incubated with immobilized anti-CD3 (Clone OKT3, eBiosciences), and 2 μg mL anti-CD28 (Clone CloneCD28.2, eBiosciences) at 37° C. for 48 h. The activated T cells were then expanded for 10d with 20 U/ml IL2(R&D Systems). 2×10⁵ cells were washed by precooled PBS for 3 times, and blocked by 2% FBS (in PBS), and then incubated with IgFD-8, IgFD-18 or IgFD-19 at different concentrations (25 nM, 7.5 nM, 2.5 nM, 0.75 nM or 0.25 nM) for 1 h at 4° C. (cells were gently mixed during incubation). Unbounded antibodies were washed by 2% FBS (in PBS), and the cells were incubated with FITC anti-human IgGFc (KPL, Inc., MD) for 1 h at 4° C. (cells were gently mixed during incubation). The cells were subjected for flow cytometry analysis after the unbounded antibodies were washed by 2% FBS (in PBS).

EGFR on F98-EGFR cells [2] = target: T2, EGFR on F98-EGFR cells (UniProt P00533 25-1210, limits assumed); test: flow cytometry on F98-EGFR cells
T2 construct: whole, on cells
Experimental: F98-EGFR cells (a DMEM containing 10% FBS, 200 μg/ml G418) were cultured. 2×10⁵ cells were washed by precooled PBS for 3 times, and blocked by 2% FBS (soluble to PBS). IgFD-8, IgFD-9, IgFD-10, IgFD-11, IgFD-18, IgFD-19, IgFD-25, IgFD-26 or IgFD-31 (aEGFR expressed in a laboratory as a control) was added and incubated for 2 h at 4° C. (cells were gently mixed during incubation), unbounded antibodies were washed by 2% FBS (soluble to PBS), and then the remaining cells were incubated by FITC anti-human IgGFc(KPL, Inc., MD) for 1 h at 4° C., and washed by 2% FBS (soluble to PBS) for flow cytometry analysis. As shown in FIG. 7 and Table 4, the anti-CD3/anti-EGFR heterodimers in different forms of fusion could bind to EGFR on F98-EGFR cells, and there was no significant difference in the binding capacity of different heterodimers to F98-EGFR.

EGFR on F98-EGFR cells [3] = target: T2, EGFR on F98-EGFR cells; test: cell-based or functional assay

T1 sequence (P07766 23-207): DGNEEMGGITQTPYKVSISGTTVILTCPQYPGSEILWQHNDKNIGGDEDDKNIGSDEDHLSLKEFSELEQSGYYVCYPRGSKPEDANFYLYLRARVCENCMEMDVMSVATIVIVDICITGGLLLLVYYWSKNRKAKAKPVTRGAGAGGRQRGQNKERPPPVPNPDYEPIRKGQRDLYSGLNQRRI

B1: IgFD-8 (bispecific antibody, human IgG1, kappa)
chain 1: EVQLVESGGGLVQPGGSLRLSCAASGFTFNTYAMNWVRQAPGKGLEWVARIRSKYNNYATYYADSVKDRFTISRDDSKNTLYLQMNSLRAEDTAVYYCVRHGNFGNSYVSWFAYWGQGTLVTVSSASTKGPSVFPLAPSSKSTSGGTAALGCLVKDYFPEPVTVSWNSGALTSGVHTFPAVLQSSGLYSLSSVVTVPSSSLGTQTYICNVNHKPSNTKVDKKVEPKSCDKTHTCPPCPAPPVAGPSVFLFPPKPKDTLMISRTPEVTCVVVDVSHEDPEVKFNWYVDGVEVHNAKTKPREEQYNSTYRVVSVLTVLHQDWLNGKEYKCKVSNKGLPSSIEKTISKAKGQPREPQVYTLPPSRDELTKNQVSLTCLVKGFYPSDIAVEWESNGQPENNYKTTPPVLDSDGSFFLYSKLTVDKSRWQQGNVFSCSVMHEALHNHYTQKSLSLSPGK
chain 2: QAVVTQEPSLTVSPGGTVTLTCRSSTGAVTTSNYANWVQQKPDHLFRGLIGGTNKRAPGTPARFSGSLLGDKAALTISGAQPEDEAEYYCALWYSNLWVFGGGTKLTVLKRTVAAPSVFIFPPSDEQLKSGTASVVCLLNNFYPREAKVQWKVDNALQSGNSQESVTEQDSKDSTYSLSSTLTLSKADYEKHKVYACEVTHQGLSSPVTKSFNRGECDKTHTCPPCPAPPVAGPSVFLFPPKPKDTLMISRTPEVTCVVVDVSHEDPEVKFNWYVDGVEVHNAKTKPREEQYNSTYRVVSVLTVLHQDWLNGKEYKCKVSNKGLPSSIEKTISKAKGQPREPQVYTLPPSRDELTKNQVSLTCLVKGFYPSDIAVEWESNGQPENNYKTTPPVLDSDGSFFLYSKLTVDKSRWQQGNVFSCSVMHEALHNHYTQKSLSLSPGKGGSGGSGGGGSGGGGSDIQMTQSPSSLSASVGDRVTITCQASQDISNYLNWYQQKPGKAPKLLIYDASNLETGVPSRFSGSGSGTDFTFTISSLQPEDIATYFCQHFDHLPLAFGGGTKVEIKGGGGSGGGGSGGGGSQVQLQESGPGLVKPSETLSLTCTVSGGSVSSGDYYWTWIRQSPGKGLEWIGHIYYSGNTNYNPSLKSRLTISIDTSKTQFSLKLSSVTAADTAIYYCVRDRVTGAFDIWGQGTMVTVSS
In the case of B1, the Kd [1] is reported as 3.74 nM, the Kd (EGFR on F98-EGFR cells [2]) is reported as 3.12 nM and the “Promotion for the specific killing effect of PBMCs on target cells by heterodimers (EC50, pM); F98-EGFR cells, LDH assay” value (EGFR on F98-EGFR cells [3]) is reported as 766 pM.
